# According to patent publication US20120195831A1 (published 2012):
# B1: PO-3H7-E3 (antibody, V domains shown)
# VH: EVQLQQSGAELVKPGASVKISCKASGYSFTGYYMNWVKQSHGKSLEWIGNINPYYGGSNYNQKFKARATLTVDKSSSTAYMQLNSLTSEDSAVYYCARKGDLYYSMDYWGQGTSVTVSS
# VL: DIVMTQTPLSLPVSLGDQASISCRSSQSIVHSNGNTYLEWYLQKPGQSPKLLIYKVSNRFSGVPDRFSGSGSGTDFTLKISRVEAEDLGIYYCFQGSHVPPTFGGGTKLELKR
# notes: Purified mouse IgG from a hybridoma; also called PO-3H7-E3-HC; PO-3H7-E3-LC
# B2: PO-1G2-B6 (antibody, V domains shown)
# VH: EVQLQQSGPELVKPGASVKISCKASGYSFTGYHIHWMKQSHVESLEWIGRINPYSGVTDYNQNFKDKANLTVDQSSSTAYMELHSLTSEDSAFYYCARTDYYGPWFAYWGQGTLVTVSA
# VL: DIQMTQSPLSLPVSLGDQASISCRSSPSLVHSNGNTYLHWYLQKPGQSPKLLIYTVSNRFSGVPDRFSGSGSGTDFTLKINRVEAEDLGVYFCSQTTHVPWTFGGGTKLEIKR
# notes: Purified mouse IgG from a hybridoma; also called PO-1G2-B6-HC; PO-1G2-B6-LC
# What was measured:
# Her3/Avi/His10 receptor [1] = molecular target: T1, Her3/Avi/His10 receptor (Homo sapiens (Human), UniProt P21860 20-643, limits assumed); test: AlphaScreen competition; antibody titrated against 10 nM biotinylated NRG-1 beta and 10 nM Her3/Avi/His10; n = 3
# T1 construct: Soluble tagged receptor of the AlphaScreen assay; The antibodies are called anti-hHer3 there; not shown: Avi tag; His10 tag (ten histidines by its name)
# T1 sequence (P21860 20-643 limits assumed): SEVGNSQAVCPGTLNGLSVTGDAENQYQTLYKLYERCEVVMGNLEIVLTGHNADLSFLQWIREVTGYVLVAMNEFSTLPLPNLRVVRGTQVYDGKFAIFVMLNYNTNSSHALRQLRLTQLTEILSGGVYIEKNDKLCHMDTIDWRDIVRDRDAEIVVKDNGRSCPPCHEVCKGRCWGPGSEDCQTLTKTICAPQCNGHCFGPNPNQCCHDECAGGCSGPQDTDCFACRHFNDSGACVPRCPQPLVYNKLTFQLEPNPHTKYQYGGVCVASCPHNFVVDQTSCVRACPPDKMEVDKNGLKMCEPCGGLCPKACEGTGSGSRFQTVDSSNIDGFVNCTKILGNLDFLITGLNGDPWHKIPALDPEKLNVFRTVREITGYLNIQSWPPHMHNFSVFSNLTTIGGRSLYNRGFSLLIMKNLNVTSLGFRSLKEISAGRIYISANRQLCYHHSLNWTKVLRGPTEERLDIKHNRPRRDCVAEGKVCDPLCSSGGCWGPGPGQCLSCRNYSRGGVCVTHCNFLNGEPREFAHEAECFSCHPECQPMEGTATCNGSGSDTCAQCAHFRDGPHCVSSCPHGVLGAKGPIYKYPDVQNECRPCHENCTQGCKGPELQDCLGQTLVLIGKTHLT
# Method: (§1) SDI or Genovac purified anti-hHer3 Mabs were serially diluted two-fold into an assay buffer made from 25 mM Hepes, 100 mM NaCl, 0.5% BSA and 0.05% Tween20 in an opaque/white, half-well area plate (Costar). Mouse IgG1 antibody was used as a negative control (Southern Biotech; cat #010201). Biotinylated NRG-1 beta ligand and Her3/Avi/His₁₀ receptor were added sequentially at 10 nM concentration to the assay plate containing serially diluted antibodies. This mixture of receptor, ligand and the antibodies was incubated at room temperature with gentle shaking for 90 minutes. AlphaScreen Streptavidin Donor beads and His-Nickel chelate Acceptor beads were added into the assay at a final concentration of 20 μg/ml each. The light sensitive beads were handled under chromagreen filtered light. The assay plates were covered with foil and incubated at room temperature with gentle shaking for 1 hour. The plates were read in PE EnVision plate reader equipped with an Alpha module (dedicated laser for excitation and designed to measure the signal above the well). Table 7 listed IC₅₀ values in ligand blocking that were estimated using four parameter curve fitting with concentration titration graphs (FIGS. 7 A&B).
# mouse HER3/ErbB3 = molecular target: T2, mouse HER3/ErbB3 (mouse, UniProt Q61526); test: FACS, purified IgG on CHO cells expressing mouse Her3, R-PE anti-mouse IgG
# T2 construct: receptor expressed on CHO cells; also called mouse Her3 receptor on CHO cells
# T2 sequence (Q61526 20-1339 limits assumed): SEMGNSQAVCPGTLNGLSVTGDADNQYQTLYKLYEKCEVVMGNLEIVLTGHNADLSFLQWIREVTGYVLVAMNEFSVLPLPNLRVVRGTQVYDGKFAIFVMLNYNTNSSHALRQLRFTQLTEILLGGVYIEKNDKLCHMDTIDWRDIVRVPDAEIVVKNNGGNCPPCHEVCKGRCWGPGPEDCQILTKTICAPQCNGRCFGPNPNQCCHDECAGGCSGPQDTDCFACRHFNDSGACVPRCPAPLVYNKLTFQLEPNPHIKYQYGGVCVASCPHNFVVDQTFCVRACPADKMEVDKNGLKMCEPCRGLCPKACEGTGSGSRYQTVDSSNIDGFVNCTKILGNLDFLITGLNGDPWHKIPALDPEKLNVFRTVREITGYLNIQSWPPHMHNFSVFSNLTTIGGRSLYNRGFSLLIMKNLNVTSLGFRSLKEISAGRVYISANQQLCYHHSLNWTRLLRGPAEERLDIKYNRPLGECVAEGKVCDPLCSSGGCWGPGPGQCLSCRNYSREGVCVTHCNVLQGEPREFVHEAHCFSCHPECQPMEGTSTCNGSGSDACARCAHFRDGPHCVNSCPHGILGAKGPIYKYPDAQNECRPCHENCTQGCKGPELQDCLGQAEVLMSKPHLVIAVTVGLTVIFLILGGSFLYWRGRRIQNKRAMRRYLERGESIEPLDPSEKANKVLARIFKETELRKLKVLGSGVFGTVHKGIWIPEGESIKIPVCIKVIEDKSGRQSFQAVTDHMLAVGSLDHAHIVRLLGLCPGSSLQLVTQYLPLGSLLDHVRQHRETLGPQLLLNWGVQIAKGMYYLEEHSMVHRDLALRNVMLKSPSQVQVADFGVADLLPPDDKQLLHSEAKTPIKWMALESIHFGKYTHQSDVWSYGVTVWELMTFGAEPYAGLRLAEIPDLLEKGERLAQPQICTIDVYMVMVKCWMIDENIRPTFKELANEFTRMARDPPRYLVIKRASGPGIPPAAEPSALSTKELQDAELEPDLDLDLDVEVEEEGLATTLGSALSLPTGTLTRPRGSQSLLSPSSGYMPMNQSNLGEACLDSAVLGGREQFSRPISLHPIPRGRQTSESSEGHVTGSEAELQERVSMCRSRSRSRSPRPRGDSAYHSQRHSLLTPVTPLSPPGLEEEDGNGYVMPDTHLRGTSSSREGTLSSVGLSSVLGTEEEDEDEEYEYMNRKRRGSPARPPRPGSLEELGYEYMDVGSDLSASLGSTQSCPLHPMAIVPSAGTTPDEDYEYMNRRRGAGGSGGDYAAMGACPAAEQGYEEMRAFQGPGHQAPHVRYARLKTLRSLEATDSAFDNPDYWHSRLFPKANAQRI
# Method: (§2) CHO cell lines expressing human or mouse Her3 receptors were used to study species-cross reactivity. Cells were harvested and resuspended in PBS, 2% FBS at a concentration of approximately 1×10⁶/ml. Cells were stained with purified IgGs at 4° C. for 40 min. Cells were washed with 4 mL PBS, 2% FBS, then centrifuged at 1200 rpm for 10 minutes. Supernatant was removed. Cells were stained with R-PE conjugated anti-mouse IgG at 4° C. for 30 min. Cells were washed with 4 mL PBS, 2% FBS, then centrifuged at 1200 rpm for 10 minutes. Supernatant was removed and cell pellets were fixed in 1% formaldehyde. Cells were analyzed on a FACS Calibur (BD Biosciences) by collecting 20,000 events from gate 1.
# [2] = molecular target: T3, human Her3 receptor on cells (T47D, MCF7) (human, UniProt P21860 20-1342); test: cell-based or functional assay
# T3 sequence (P21860 20-1342 limits assumed, stated change not applied): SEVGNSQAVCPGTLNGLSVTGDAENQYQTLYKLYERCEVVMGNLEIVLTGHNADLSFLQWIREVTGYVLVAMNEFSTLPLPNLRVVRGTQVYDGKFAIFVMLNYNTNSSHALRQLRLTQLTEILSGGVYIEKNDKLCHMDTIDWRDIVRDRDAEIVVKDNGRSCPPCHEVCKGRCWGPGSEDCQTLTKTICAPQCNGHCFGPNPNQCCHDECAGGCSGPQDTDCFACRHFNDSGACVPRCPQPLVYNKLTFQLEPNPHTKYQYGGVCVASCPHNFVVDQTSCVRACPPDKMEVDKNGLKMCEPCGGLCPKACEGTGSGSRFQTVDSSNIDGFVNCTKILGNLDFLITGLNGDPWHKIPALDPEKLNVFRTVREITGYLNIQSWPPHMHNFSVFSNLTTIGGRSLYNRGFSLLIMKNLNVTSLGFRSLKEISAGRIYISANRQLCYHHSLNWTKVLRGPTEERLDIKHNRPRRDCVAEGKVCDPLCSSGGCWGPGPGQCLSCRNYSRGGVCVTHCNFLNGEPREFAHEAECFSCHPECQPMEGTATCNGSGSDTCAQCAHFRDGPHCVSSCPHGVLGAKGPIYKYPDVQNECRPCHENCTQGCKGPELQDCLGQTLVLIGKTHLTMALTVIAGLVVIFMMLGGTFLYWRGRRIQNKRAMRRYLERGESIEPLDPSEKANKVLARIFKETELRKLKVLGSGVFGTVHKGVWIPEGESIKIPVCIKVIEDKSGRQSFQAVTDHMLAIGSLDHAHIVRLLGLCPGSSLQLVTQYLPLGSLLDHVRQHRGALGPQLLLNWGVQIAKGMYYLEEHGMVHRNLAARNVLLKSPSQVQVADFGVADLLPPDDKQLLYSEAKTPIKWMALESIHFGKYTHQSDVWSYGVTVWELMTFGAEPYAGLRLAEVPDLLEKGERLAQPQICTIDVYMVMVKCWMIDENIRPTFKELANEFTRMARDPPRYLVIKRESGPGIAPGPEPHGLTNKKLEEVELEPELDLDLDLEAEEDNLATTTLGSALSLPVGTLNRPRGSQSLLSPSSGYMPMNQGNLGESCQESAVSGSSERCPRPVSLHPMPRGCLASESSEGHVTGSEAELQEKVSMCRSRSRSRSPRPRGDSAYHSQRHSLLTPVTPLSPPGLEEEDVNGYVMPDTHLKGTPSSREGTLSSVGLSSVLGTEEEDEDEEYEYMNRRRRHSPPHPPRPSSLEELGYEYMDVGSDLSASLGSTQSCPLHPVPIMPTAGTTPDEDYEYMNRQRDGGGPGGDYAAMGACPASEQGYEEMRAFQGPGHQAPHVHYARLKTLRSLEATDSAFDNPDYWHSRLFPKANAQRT
# [3] = molecular target: T4, EGFR on CHO cells (CHO-EGFR) (UniProt P00533 25-1210, limits assumed); test: FACS on CHO-EGFR cells, purified IgG, R-PE anti-mouse IgG
# T4 construct: whole, on cells
# Method: as §2, with “CHO-Her2, CHO-Her4, CHO-EGFR cells” for “CHO cell lines expressing human or mouse Her3 receptors were used to study species-cross reactivity. Cells”
# [4] = molecular target: T3, human Her3 receptor on cells (T47D, …); test: cell-based or functional assay; remark: listed apart in the source
# [5] = molecular target: T3, human Her3 receptor on cells (T47D, …); test: cell-based or functional assay; remark: listed apart in the source
# [6] = molecular target: T5, Her2 on CHO cells (CHO-Her2) (UniProt P04626 23-1255, limits assumed); test: FACS on CHO-Her2 cells, purified IgG, R-PE anti-mouse IgG
# T5 construct: whole, on cells
# Method: as §2, with “CHO-Her2, CHO-Her4, CHO-EGFR cells” for “CHO cell lines expressing human or mouse Her3 receptors were used to study species-cross reactivity. Cells”
# Her3/Avi/His10 receptor [7] = molecular target: T1, Her3/Avi/His10 receptor; test: AlphaScreen ligand blocking: antibody titrated against 10 nM biotinylated NRG-1 beta and 10 nM Her3/Avi/His10, % signal
# Method: as §1
# [8] = molecular target: T6, Recombinant Human Her3 (Her3/ErbB3 extracellular domain) (human, UniProt P21860 20-643); test: SPR (BIAcore), Mab captured by anti-IgG Fc on CM5 chip, recombinant human Her3 as analyte, 25 °C
# T6 construct: Analyte of the BIAcore assay; also called Her3 ECD; human Her3/ErbB3 extracellular domain
# T6 sequence (P21860 20-643 limits assumed): as the sequence (P21860 20-643 limits assumed) above
# Method: All experiments were performed at 25° C. at a flow rate of 40 μl/min. To prepare a BIAcore assay, an anti-human IgG-Fc antibody (50 μg/ml each in acetate buffer, pH 5.0) was immobilized onto a carboxymethyl dextran sensorchip (CM5) using amine coupling procedures as described by the manufacturer. 10000 resonance units (RU) of anti-mouse IgG Fc antibodies were linked respectively onto Flowcells (FC) 1 and 2. Purified Mabs to be tested were diluted at a concentration of 5 μg/ml in 0.5% P20, HBS-EP buffer and injected on FC2 to reach 500 to 1000 RU. FC1 was used as the reference cell. Specific signals correspond to the difference of signals obtained on FC2 versus FC1. The analyte (Recombinant Human Her3, apparent molecular weight 97 kDa) was injected during 90 sec at 5 different concentrations (100, 50, 25, 12.5 and 6.25 nM) in 0.5% P20, HBS-EP buffer. These concentrations were prepared from stock solution in 0.5% P20, HBS-EP. The dissociation phase of the analyte was monitored over a 10 minutes period. Running buffer was also injected under the same conditions as a double reference. After each cycle (antibody+Her3 injection), both Flowcells were regenerated by injecting 20 to 45 μl of Glycine-HCl buffer pH 1.5. This regeneration is sufficient to eliminate all Mabs and Mabs/Her3 complexes captured on the sensorchip. Table 1 listed binding KD for Her3 binding monoclonal antibodies.
# [9] = molecular target: T7, Her4 on CHO cells (CHO-Her4) (UniProt Q15303 26-1308, limits assumed); test: FACS on CHO-Her4 cells, purified IgG, R-PE anti-mouse IgG
# T7 construct: whole, on cells
# T7 sequence (Q15303 26-1308 limits assumed): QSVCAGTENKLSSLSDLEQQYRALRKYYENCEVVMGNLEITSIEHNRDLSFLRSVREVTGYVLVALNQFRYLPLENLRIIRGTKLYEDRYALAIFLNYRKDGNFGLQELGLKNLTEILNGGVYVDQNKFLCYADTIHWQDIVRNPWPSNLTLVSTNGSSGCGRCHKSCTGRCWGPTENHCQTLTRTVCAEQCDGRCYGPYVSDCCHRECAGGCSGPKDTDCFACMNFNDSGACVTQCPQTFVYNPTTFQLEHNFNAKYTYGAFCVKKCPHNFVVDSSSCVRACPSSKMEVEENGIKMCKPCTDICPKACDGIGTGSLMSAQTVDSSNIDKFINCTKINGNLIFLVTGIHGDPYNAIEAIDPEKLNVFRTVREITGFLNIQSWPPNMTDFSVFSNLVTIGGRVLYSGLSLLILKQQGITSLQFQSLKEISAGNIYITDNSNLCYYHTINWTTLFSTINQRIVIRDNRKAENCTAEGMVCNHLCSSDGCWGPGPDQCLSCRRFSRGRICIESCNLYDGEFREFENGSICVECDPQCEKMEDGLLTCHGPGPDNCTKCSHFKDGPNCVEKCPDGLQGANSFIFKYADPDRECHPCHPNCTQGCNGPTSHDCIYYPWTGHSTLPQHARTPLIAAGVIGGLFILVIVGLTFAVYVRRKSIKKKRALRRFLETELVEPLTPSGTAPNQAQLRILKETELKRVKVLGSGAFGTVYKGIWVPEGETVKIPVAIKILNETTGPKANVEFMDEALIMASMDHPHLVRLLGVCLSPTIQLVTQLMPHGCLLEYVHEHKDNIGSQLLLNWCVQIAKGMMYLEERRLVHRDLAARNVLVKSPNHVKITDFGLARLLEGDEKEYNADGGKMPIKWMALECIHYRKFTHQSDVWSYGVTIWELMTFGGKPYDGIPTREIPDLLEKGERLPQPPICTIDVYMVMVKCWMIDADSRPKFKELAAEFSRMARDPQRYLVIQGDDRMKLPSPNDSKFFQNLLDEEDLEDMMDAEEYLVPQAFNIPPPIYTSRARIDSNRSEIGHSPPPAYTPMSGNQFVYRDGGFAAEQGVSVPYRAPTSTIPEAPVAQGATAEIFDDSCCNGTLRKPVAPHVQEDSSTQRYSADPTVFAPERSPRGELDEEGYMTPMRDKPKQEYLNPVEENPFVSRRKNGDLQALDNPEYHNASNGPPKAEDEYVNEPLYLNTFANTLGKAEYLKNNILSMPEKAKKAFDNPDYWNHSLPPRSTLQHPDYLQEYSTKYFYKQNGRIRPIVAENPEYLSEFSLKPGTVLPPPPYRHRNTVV
# Method: as §2, with “CHO-Her2, CHO-Her4, CHO-EGFR cells” for “CHO cell lines expressing human or mouse Her3 receptors were used to study species-cross reactivity. Cells”
# [10] = molecular target: T3, human Her3 receptor on cells (T47D, …); test: cell-based or functional assay; remark: listed apart in the source
Binder,IC50 (Her3/Avi/His10 receptor [1]),binding result (mouse HER3/ErbB3),"% Receptor Internalization (T47D cells, FACS) [2]",binding result [3],"IC50 of inhibition of pHer3 (MCF7 cells stimulated with rhNRG1-β1, ELISA) [4]","IC50 of pAKT inhibition (MCF7 cells stimulated with rhNRG1-β1, ELISA) [5]",binding result [6],IC50 (Her3/Avi/His10 receptor [7]),Kd [8],binding result [9],"IC50 of pERK inhibition (MCF7 cells stimulated with rhNRG1-β1, MSD) [10]"
B1,12.7 nM,binds,14%,no binding,4.98 nM,45.2 nM,no binding,11 nM,1.6 nM,no binding,
B2,72.8 nM,binds,13%,no binding,2.91 nM,,no binding,42.6 nM,5.5 nM,no binding,290 nM
